# Patent US20240287188A1 (KUMHO HT, published 2024)
# Changes are numbered by the printed parent chain.
# B1: chimeric anti-ICAM-1 antibody SI9 (mouse SI9 variable regions, human IgG4/kappa constant regions) (antibody)
# heavy: QVQLQQSGAELVRPGVSVKISCKGSGYTFTDYALHWVKQSHAKSLEWIGVISTYSGNTDYNQKFRGKATMTVDKSSTTAYLELARLTSEDSAIHYCARSLYFGSSGFDYWGQGTALTVSS
# light: DVVLTQTPLSLPVNLGDQASISCRSSQTLVYRNGNTYLHWYLQKAGQSPKLLIYKVSNRFSGVPDRFSGSGSGTDFTLKISRVEAEDLGVYFCSQNTHFPYTFGGGTKIKR
# notes: the hinge lies in the heavy chain; also called chimeric antibody SI9; SI9 Chimeric; not shown: human IgG4 heavy chain constant region, GenBank AIC59040.1 (printed), hinge 'CPSCP' modified to 'CPPCP' (position not pr); human kappa light chain constant region, GenBank AAA58989.1 (printed)
# B2: humanized anti-ICAM-1 antibody H17L3 (VH17 + VL3), human IgG4/kappa (antibody, V domains shown)
# VH: QVQLVQSGAEVKKPGASVKISCKGSGYTFTDYALHWVRQAPGQRLEWMGVISTYSGNTDYNQKFRGRATITVDTSASTAYMELSSLRSEDTAVYYCARSLYFGSSGFDYWGQGTALTVSS
# VL: DVVLTQTPLSSPVTLGQPASISCRSSQTLVYRNGNTYLHWYLQRAGQPPRLLIYKVSNRFSGVPDRFSGSGAGTDFTLKISRVEAEDVGVYFCSQNTHFPYTFGGGTKLEIKT
# notes: The Arg at the VL/CL junction is in neither entry
# B3: humanized anti-ICAM-1 antibody H5L3 (VH5 + VL3), human IgG4/kappa (antibody, V domains shown)
# VH: B2 VH with G24A, A68V, T74K, S77T
# VL: B2 VL
# notes: as for B2
# B4: humanized anti-ICAM-1 antibody H17L4 (VH17 + VL4), human IgG4/kappa (antibody, V domains shown)
# VH: B2 VH
# VL: B2 VL with L42Q, A45P
# notes: The Arg at the VL/CL junction is in neither entry; also called DNP007; DNP007 antibody (H17L4 antibody)
# B5: humanized anti-ICAM-1 antibody H17L1 (VH17 + VL1), human IgG4/kappa (antibody, V domains shown)
# VH: B2 VH
# VL: B2 VL with T7S, S11L, L42Q, A45P, P48S, A72S
# B6: humanized anti-ICAM-1 antibody H4L3 (VH4 + VL3), human IgG4/kappa (antibody, V domains shown)
# VH: B2 VH with I20V, G24A, M48I, A68V, I70M, V72R, S77T, M81L
# VL: B2 VL
# notes: as for B2
# Columns and labels:
# [1] = target: ICAM-1 expressed on the surface of the prostate cancer cell line Du145 (human) (UniProt P05362); assay: flow cytometry on Du145 cells expressing ICAM-1
# Sequence of ICAM-1 expressed on the surface of the prostate cancer cell line Du145 (human) (P05362 28-532): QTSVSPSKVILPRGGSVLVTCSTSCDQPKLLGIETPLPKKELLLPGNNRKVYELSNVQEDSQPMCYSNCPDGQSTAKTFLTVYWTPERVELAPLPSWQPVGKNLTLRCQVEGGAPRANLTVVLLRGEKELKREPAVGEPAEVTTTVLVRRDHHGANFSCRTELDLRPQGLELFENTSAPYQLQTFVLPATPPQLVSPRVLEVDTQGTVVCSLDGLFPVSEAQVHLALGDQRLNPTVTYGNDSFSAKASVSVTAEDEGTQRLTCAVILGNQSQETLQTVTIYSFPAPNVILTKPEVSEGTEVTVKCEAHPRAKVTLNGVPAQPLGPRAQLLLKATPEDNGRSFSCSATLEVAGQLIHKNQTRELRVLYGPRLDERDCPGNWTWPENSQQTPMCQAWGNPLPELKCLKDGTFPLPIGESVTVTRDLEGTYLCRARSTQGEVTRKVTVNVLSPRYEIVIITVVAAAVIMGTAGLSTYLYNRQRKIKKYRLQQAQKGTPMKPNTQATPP
# [2] = target: T1, ICAM-1 protein antigen (R&D System) (human, UniProt P05362 28-480); assay: BLI (Octet), antibody coupled to AR2G amine-reactive sensor, ICAM-1 in solution at 5 concentrations
# T1 construct: The assay paragraphs say only 'ICAM-1 (R&D System)'; also called antigen ICAM-1; ICAM-1 antigen
# T1 sequence (P05362 28-480 limits assumed): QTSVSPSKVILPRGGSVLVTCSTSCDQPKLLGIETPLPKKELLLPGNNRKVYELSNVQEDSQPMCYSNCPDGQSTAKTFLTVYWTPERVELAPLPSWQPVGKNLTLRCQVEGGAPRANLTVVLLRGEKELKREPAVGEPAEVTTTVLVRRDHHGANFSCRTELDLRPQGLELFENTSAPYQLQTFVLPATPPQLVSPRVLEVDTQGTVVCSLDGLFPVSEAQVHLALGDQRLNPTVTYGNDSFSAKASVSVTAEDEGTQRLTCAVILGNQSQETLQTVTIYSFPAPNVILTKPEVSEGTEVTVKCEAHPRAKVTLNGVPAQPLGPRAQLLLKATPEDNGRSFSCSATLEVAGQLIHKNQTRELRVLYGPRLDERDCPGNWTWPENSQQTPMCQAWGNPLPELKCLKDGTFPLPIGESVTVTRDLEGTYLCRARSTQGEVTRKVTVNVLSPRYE
# Experimental: The Octet system (ForteBio) was used to compare the affinity of the H17L1 and H17L4 humanized antibodies to the antigen with the parent antibody. Each of three antibodies was attached to the amine reactive Bio-sensor AR2G (ForteBio), and 5 different concentrations of ICAM-1 antigen solution were added to induce antigen/antibody reactions to occur. Using the antigen/antibody reaction results, the binding constant (Kon) and the dissociation constant (Koff) were measured, and the affinity (KD) was calculated, and the results are shown in Table 10 and FIG. 8: […]
# [3] = target: T1, ICAM-1 protein antigen (R&D System); assay: ELISA, ICAM-1 coated 100 ng/well, anti-human Ig-HRP
# Experimental: The antigen ICAM-1 (ICAM-1; R&D System) was coated on a 96 well plate at 100 ng per well, followed by blocking. The amount of the primary antibody was serially diluted twice from 80 ng/ml and bound for 1 hour at 37° C. and a secondary antibody diluted 1:10000 with goat anti-Human Ig-HRP conjugate (Jackson ImmunoResearch) was combined at 37° C. for 30 minutes. Each step was washed three times and reacted with TMB (3,3′,5,5′-Tetramethylbenzidine). After the reaction was stopped by treatment with 1N H₂SO₄ solution in the same amount (100 ul) as the TMB solution, the OD value was measured at 450 nm.
Molecule,% Gated (marker M1) [1] [%],Mean (marker All) [1],Mean (marker M1) [1],Kd [2] [nM],koff [2] [s⁻¹],kon [2] [M⁻¹ s⁻¹],OD 450 nm at 2.5 ng/ml antibody [3],OD 450 nm at 5 ng/ml antibody [3],OD 450 nm at 10 ng/ml antibody [3],OD 450 nm at 20 ng/ml antibody [3],OD 450 nm at 40 ng/ml antibody [3],OD 450 nm at 80 ng/ml antibody [3]
Negative control,0.58,3.9,91,–,–,–,–,–,–,–,–,–
B1,–,–,–,10.3,0.00169,165000,0.118 OD (450 nm),0.182 OD (450 nm),0.298 OD (450 nm),0.473 OD (450 nm),0.724 OD (450 nm),1.14 OD (450 nm)
B2,–,–,–,–,–,–,0.135 OD (450 nm),0.201 OD (450 nm),0.344 OD (450 nm),0.567 OD (450 nm),0.848 OD (450 nm),1.2 OD (450 nm)
B3,–,–,–,–,–,–,0.128 OD (450 nm),0.208 OD (450 nm),0.35 OD (450 nm),0.592 OD (450 nm),0.862 OD (450 nm),1.25 OD (450 nm)
B4,–,–,–,3.62,0.000929,256000,0.136 OD (450 nm),0.236 OD (450 nm),0.349 OD (450 nm),0.637 OD (450 nm),0.983 OD (450 nm),1.24 OD (450 nm)
B5,–,–,–,3.43,0.000853,249000,0.119 OD (450 nm),0.186 OD (450 nm),0.297 OD (450 nm),0.506 OD (450 nm),0.802 OD (450 nm),1.11 OD (450 nm)
B6,–,–,–,–,–,–,0.115 OD (450 nm),0.189 OD (450 nm),0.305 OD (450 nm),0.52 OD (450 nm),0.832 OD (450 nm),1.23 OD (450 nm)
